For assay [1], the target named is T1, IGSF8 protein without D1 domain (human, UniProt Q969P0 150-579, limits assumed).
T1 construct: domain: D2-4; also called D24; D2-4
T1 sequence (looked up): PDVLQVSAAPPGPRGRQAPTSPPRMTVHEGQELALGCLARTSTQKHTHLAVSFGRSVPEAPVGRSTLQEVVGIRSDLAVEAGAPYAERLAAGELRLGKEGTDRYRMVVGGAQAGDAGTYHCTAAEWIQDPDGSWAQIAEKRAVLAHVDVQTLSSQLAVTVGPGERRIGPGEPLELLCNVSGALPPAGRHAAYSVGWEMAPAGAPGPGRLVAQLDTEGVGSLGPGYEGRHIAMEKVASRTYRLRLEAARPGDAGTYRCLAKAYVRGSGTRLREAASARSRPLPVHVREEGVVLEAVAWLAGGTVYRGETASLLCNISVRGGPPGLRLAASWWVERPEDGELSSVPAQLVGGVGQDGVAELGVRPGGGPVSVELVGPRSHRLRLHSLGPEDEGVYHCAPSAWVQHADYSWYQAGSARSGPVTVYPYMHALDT
Put plainly: FACS, hFc-tagged proteins on CT26 cells expressing the receptor, MFI normalized to Thy1.1. The protocol: (§1) KLRC1 also contains a ITIM motif in its intracellular domain, and was known to be a inhibitory receptor of NK or CD8⁺ T cells as part of a heterodimer with KLRD1 on the cell surface. […] Specifically, 100,000 CT26 cells overexpressing the antigens (KIRs or KLRs) were washed with PBS buffer containing 2% FBS, and incubated with 100 μL IGSF8 recombinant proteins or antibodies (5 μg/mL) for 30 minutes on ice. Cells were then washed twice with wash buffer, and incubated with 100 μL of 1:100 anti-human Fc-PE antibody for 15 minutes on ice. Cells were washed twice with wash buffer and analyzed on a FACS analyzer (CytoFlex, Beckman). In these experiments, the mean fluorescence intensity (MFI) of IGSF8 binding to different CT26 cells were normalized by the expression of different KLRs on CT26 cells using an anti-thy1.1 mAb via flow cytometry.

In assay [2] the target is T2, recombinant human IGSF8 extracellular domain tagged by a human Fc region (IGSF8-hFc) (human, UniProt Q969P0 28-579, biotin label in Examples 17, 18 and 28 (site not given)).
T2 construct: also called IGSF8-Fc fusion protein; IGSF8-hFc-biotin; not shown: human Fc region
T2 sequence: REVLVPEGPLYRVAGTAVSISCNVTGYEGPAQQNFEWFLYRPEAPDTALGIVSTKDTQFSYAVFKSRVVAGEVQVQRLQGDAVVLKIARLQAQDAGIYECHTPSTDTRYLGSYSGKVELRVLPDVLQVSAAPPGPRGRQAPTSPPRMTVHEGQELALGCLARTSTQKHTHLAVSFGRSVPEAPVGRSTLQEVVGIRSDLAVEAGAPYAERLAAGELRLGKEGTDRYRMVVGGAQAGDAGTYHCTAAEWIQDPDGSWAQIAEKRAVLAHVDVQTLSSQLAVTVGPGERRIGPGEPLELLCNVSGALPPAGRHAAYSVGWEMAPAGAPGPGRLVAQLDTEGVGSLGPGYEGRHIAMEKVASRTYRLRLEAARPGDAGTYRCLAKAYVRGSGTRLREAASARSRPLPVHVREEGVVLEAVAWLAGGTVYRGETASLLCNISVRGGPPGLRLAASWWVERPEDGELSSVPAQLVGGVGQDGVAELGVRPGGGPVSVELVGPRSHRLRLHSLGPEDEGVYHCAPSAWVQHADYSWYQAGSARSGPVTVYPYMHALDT
Put plainly: FACS, biotin-labelled IGSF8-hFc on CT26 cells expressing the KIR, MFI normalized to Thy1.1. The protocol: For this experiment, different human KIR receptors (KIR2DL1, KIR2DL2, KIR2DL3, KIR2DL4, KIR2DL5A, KIR2DL5B, KIR3DL1, KIR3DL2, KIR3DL3) were first cloned into a proprietary lentiviral vector containing a thy1.1 tag (FIG. 17A). Then mouse CT26 cells, were transducted by these lentiviral constructs, and IGSF8 binding was tested with biotin-labelled recombinant IGSF8 hFc fusion protein. The mean fluorescence intensity (MFI) of IGSF8 binding to different CT26 cells were normalized by the expression of different KIRs on CT26 cells using an anti-thy1.1 mAb (Biolegend) via flow cytometry.
as §1

B1: KIR3DL1 expressed on CT26 cells (receptor, human, UniProt P43629 22-444, looked up)
chain: HMGGQDKPFLSAWPSAVVPRGGHVTLRCHYRHRFNNFMLYKEDRIHIPIFHGRIFQESFNMSPVTTAHAGNYTCRGSHPHSPTGWSAPSNPVVIMVTGNHRKPSLLAHPGPLVKSGERVILQCWSDIMFEHFFLHKEGISKDPSRLVGQIHDGVSKANFSIGPMMLALAGTYRCYGSVTHTPYQLSAPSDPLDIVVTGPYEKPSLSAQPGPKVQAGESVTLSCSSRSSYDMYHLSREGGAHERRLPAVRKVNRTFQADFPLGPATHGGTYRCFGSFRHSPYEWSDPSDPLLVSVTGNPSSSWPSPTEPSSKSGNPRHLHILIGTSVVIILFILLLFFLLHLWCSNKKNAAVMDQEPAGNRTANSEDSDEQDPEEVTYAQLDHCVFTQRKITRPSQRPKTPPTDTILYTELPNAKPRSKVVSCP
notes: whole, on cells; lentiviral vector containing a thy1.1 tag
B1: the binding result is “no binding” in assay [1] and “binds” in assay [2].

For the origin of these results see patent US20230303695A1 (SHANGHAI XBH BIOTECHNOLOGY, published 2023).
